According to publication PMC6555802, “CHML promotes liver cancer metastasis by facilitating Rab14 recycle” (Nature Communications, 2019):

Molecular target: T1, Rab14 (fluorescence titration) (human, UniProt P61106 1-215)
T1 construct: Rab14
Test: other fluorescence titration; fluorescence titration assay (Supplementary Fig. 8); conditions not stated in the text shown
Conditions: both partners purified

B1: CHML (fluorescence titration) (natural protein)
chain: MADNLPTEFDVVIIGTGLPESILAAACSRSGQRVLHIDSRSYYGGNWASFSFSGLLSWLKEYQQNNDIGEESTVVWQDLIHETEEAITLRKKDETIQHTEAFCYASQDMEDNVEEIGALQKNPSLGVSNTFTEVLDSALPEESQLSYFNSDEMPAKHTQKSDTEISLEVTDVEESVEKEKYCGDKTCMHTVSDKDGDKDESKSTVEDKADEPIRNRITYSQIVKEGRRFNIDLVSKLLYSQGLLIDLLIKSDVSRYVEFKNVTRILAFREGKVEQVPCSRADVFNSKELTMVEKRMLMKFLTFCLEYEQHPDEYQAFRQCSFSEYLKTKKLTPNLQHFVLHSIAMTSESSCTTIDGLNATKNFLQCLGRFGNTPFLFPLYGQGEIPQGFCRMCAVFGGIYCLRHKVQCFVVDKESGRCKAIIDHFGQRINAKYFIVEDSYLSEETCSNVQYKQISRAVLITDQSILKTDLDQQTSILIVPPAEPGACAVRVTELCSSTMTCMKDTYLVHLTCSSSKTAREDLESVVKKLFTPYTETEINEEELTKPRLLWALYFNMRDSSGISRSSYNGLPSNVYVCSGPDCGLGNEHAVKQAETLFQEIFPTEEFCPPPPNPEDIIFDGDDKQPEAPGTNNVVMAKLESSEESKNLESPEKHLQN
notes: choroideremia-like (CHML, REP2)
Kd: ~0.36 nM
